Biological target: the molecule itself
Assay: cryo-EM particle classification

B1: NTD-truncated human NPC1L1 in the cholesterol-enriched form (domain or fragment, UniProt Q9UHC9-2 265-1332, looked up)
chain: AIARPQALDSTFYLGQMPGSLVLIIILCSVFAVVTILLVGFRVAPARDKSKMVDPKKGTSLSDKLSFSTHTLLGQFFQGWGTWVASWPLTILVLSVIPVVALAAGLVFTELTTDPVELWSAPNSQARSEKAFHDQHFGPFFRTNQVILTAPNRSSYRYDSLLLGPKNFSGILDLDLLLELLELQERLRHLQVWSPEAQRNISLQDICYAPLNPDNTSLYDCCINSLLQYFQNNRTLLLLTANQTLMGQTSQVDWKDHFLYCANAPLTFKDGTALALSCMADYGAPVFPFLAIGGYKGKDYSEAEALIMTFSLNNYPAGDPRLAQAKLWEEAFLEEMRAFQRRMAGMFQVTFMAERSLEDEINRTTAEDLPIFATSYIVIFLYISLALGSYSSWSRVMVDSKATLGLGGVAVVLGAVMAAMGFFSYLGIRSSLVILQVVPFLVLSVGADNIFIFVLEYQRLPRRPGEPREVHIGRALGRVAPSMLLCSLSEAICFFLGALTPMPAVRTFALTSGLAVILDFLLQMSAFVALLSLDSKRQEASRLDVCCCVKPQELPPPGQGEGLLLGFFQKAYAPFLLHWITRGVVLLLFLALFGVSLYSMCHISVGLDQELALPKDSYLLDYFLFLNRYFEVGAPVYFVTTLGYNFSSEAGMNAICSSAGCNNFSFTQKIQYATEFPEQSYLAIPASSWVDDFIDWLTPSSCCRLYISGPNKDKFCPSTVNSLNCLKNCMSITMGSVRPSVEQFHKYLPWFLNDRPNIKCPKGGLAAYSTSVNLTSDGQVLTSRFMAYHKPLKNSQDYTEALRAARELAANITADLRKVPGTDPAFEVFPYTITNVFYEQYLTILPEGLFMLSLCLVPTFAVSCLLLGLDLRSGLLNLLSIVMILVDTVGFMALWGISYNAVSLINLVSAVGMSVEFVSHITRSFAISTKPTWLERAKEATISMGSAVFAGVAMTNLPGILVLGLAKAQLIQIFFFRLNLLITLLGLLHGLVFLPVILSYVGPDVNPALALEQKRAEEAVAAVMVASCPNHPSRVSTADNIYVNHSFEGSIKGAGAISNFLPNNGRQF
modifications: N-glycosylated (10 N-glycosylation sites seen in the density map)
B1: binds.
